± gives the uncertainty stated by the source.
Test: amyloid nucleation score (Sup35N fusion, yeast selection) (log enrichment); library NNK2; higher = more nucleation; inactive = no reads after selection
Outline: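 The nucleation score equals the log enrichment of output over input reads from DiMSum, centred on the mode score of non-aggregating sequences. It was computed only for sequences with 100 or more input reads. The reads came from Illumina sequencing of plasmid inserts from psi-negative yeast expressing Sup35N fused to peptides of 20 random codons, induced with 100 μM copper sulfate for 24 hours and grown 7 days at 30°C without adenine and uracil.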

Row | Substance | amyloid nucleation score
1 | SQGCVICGFYLLWHPNRHCQ | 9.447 ± 0.051
2 | SQGGIRWY | -0.842 ± 0.38
3 | SQIRGESSYYCLPSFSLLFF | 6.215 ± 0.057
4 | SQSMNGRQMHLYDRPSTGWF | inactive
5 | SRCASKFVTWEAYYTVSVKR | 0.25 ± 0.8
6 | SRFCVRRLTVYRRSV | 0.43 ± 0.45
7 | SRFISLSSEDVSALNTCNNR | 1.25 ± 0.61
8 | SRFLARQLLKSASLRLFVET | -0.159 ± 0.35
9 | SRFPGCSVSTGRHRTKVSSR | 0.177 ± 0.43
10 | SRFRGKLCFGWHKYAFGEVF | -0.711 ± 0.79
11 | SRICMKWDSSNLWSF | inactive
12 | SRIMALTMCFYTNRGRELVN | -1.19 ± 0.38
13 | SRLMVGGQSLVSW | 5.716 ± 0.042
14 | SRLRNYLKVLSD | -0.474 ± 1.1
15 | SRLSKTRLPFWHFMNMLKMP | 0.126 ± 0.56
16 | SRNLTVNK | -0.072 ± 0.79
17 | SRSCVKH | -1.27 ± 0.55
18 | SRSKGYLYGIMSAKLRCSLK | 0.206 ± 0.39
19 | SRWKGSRF | 0.764 ± 0.26
20 | SRWLGAKCSSRC | -0.361 ± 0.48
21 | SRYSFYLRFHVLSVMAVQML | 0.688 ± 0.81
22 | SSANDNLNTERDQARLVTRC | -0.013 ± 0.36

Row | Substance | amyloid nucleation score
23 | SSASALMKLVMMY | -0.003 ± 0.22
24 | SSATFYT | 1.43 ± 0.26
25 | SSAWLDLDIMLGLFVIVFTP | 5.439 ± 0.044
26 | SSDNRFCVDDFEVGVCGVMR | 2.84 ± 0.07
27 | SSDNTQYTETRYSYGFLIKL | 0.776 ± 0.56
28 | SSFFRISS | -0.907 ± 1
29 | SSFWFSGAADINRVVLRGIE | -0.175 ± 0.32
30 | SSGLH | 0.527 ± 0.8
31 | SSHLGTFLSDRGKSWVSGND | -0.569 ± 0.55
32 | SSIRKDNRGCAHGGLVVER | 0.698 ± 0.44
33 | SSKSHLSLLK | -0.849 ± 0.4
34 | SSLEFYVFWYP | -1.14 ± 1
35 | SSLNM | -0.595 ± 0.61
36 | SSLVNTACDTL | -0.036 ± 0.29
37 | SSLYHLAGHGTAGSRLTSGR | 0.511 ± 0.41
38 | SSMGIVGPYGWFSTSMVNIV | 0.895 ± 0.28
39 | SSNALKGDGSFGQNEVESAK | -0.043 ± 0.32
40 | SSNYYVLCFTMPYWFYSLV | 1.02 ± 0.33
41 | SSQTGTCFARLQSAVFQVVW | 1.69 ± 0.36
42 | SSREYEEGMAGTGGLELLSL | 1.16 ± 0.44
43 | SSRQTVGNTPASDLLRDYCW | 0.388 ± 0.38
44 | SSRTPNYA | inactive

Row | Substance | amyloid nucleation score
45 | SSRVVVLNYATRRGGQVSGR | 0.496 ± 0.38
46 | SSTSLLNLPCWDRIFHTVRL | -0.429 ± 0.42
47 | SSTWLGLS | 0.112 ± 1.1
48 | SSWLEVAMTALRSIWYMD | 0.103 ± 0.26
49 | SSYGFINYMTS | inactive
50 | SSYNSGLRLLSFTCCV | 9.355 ± 0.052
51 | SSYVVNSERVSDVARHSTLQ | 1.91 ± 0.21
52 | STCTLKCWRWMPWTSFSFRC | 1.3 ± 0.21
53 | STEAVMLQGVFHRSCCR | 0.761 ± 0.46
54 | STEERRWNN | -0.217 ± 0.79
55 | STKSSVAVGSDSWNRSHRQV | 0.773 ± 0.22
56 | STLGPLGPSGYSRRARRLLA | 7.415 ± 0.06
57 | STMLWLCFFMGKLSVDTVFE | -0.6 ± 0.53
58 | STTVTLGQSICFYLSCGLRD | 9.214 ± 0.051
59 | SVANERR | 5.7 ± 0.065
60 | SVCVWAYACRDRTPLLGRFC | 0.508 ± 0.56
61 | SVDIGYS | 0.586 ± 0.81
62 | SVDRVYGSTFIFSRGDR | 8.113 ± 0.022
63 | SVECKCYYRL | 5.59 ± 0.062
64 | SVEMRTNLTAGWRILIRWSS | 1.2 ± 0.14
65 | SVGEFSVRWAACGDLWCW | 0.725 ± 0.2
